US20100081624A1, “SELECTIVE PEPTIDES THAT INHIBIT THE BIOLOGICAL ACTIVITY OF CALCINEURIN” (Consejo Superior de Investigaciones Cientficas, priority 2005, published 2010)

Target: Calcineurin (CN) of HeLa cells, endogenous
Test: cell-based or functional assay

Substance | percentage of cells with cytosolic NFATc2 staining after calcium ionophore [%]
GFP-LxVPc1 fusion protein | 77
GFP-VIVIT fusion protein | 92
